Target: Paracoccus denitrificans FnrP (Paracoccus denitrificans)
Assay: SEC; analytical gel filtration under anaerobic conditions, calibrated Sephacryl S-100HR 16/50, assay buffer (25 mM HEPES, 2.5 mM CaCl2, 100 mM NaCl, 100 mM NaNO3, pH 7.5), 1 ml/min; reconstituted [4Fe–4S] FnrP (~90 % loaded) loaded at ~28 μM [4Fe–4S], in the absence of O2

- stoichiometry N: 2
Substance: Paracoccus denitrificans FnrP (natural protein)

— PMC4771820
